{"source": "patent US10888547B2", "about": "“Amorphous and a crystalline form of genz 112638 hemitartrate as inhibitor of glucosylceramide synthase” (Genzyme Corporation, priority 2009, dated 2021)", "key": {"[1]": {"test_system": "cytochrome P450 enzymes", "assay": "Hepatic metabolism by cytochrome P450 enzymes", "type": "in vitro ADME, human", "conditions": "liver", "source_text": "Cytochrome P450s (“CYPs”) are the principal hepatic xenobiotic metabolizing enzymes. There are eleven xenobiotic-metabolizing cytochrome P450s expressed in a typical human liver (i.e., CYP1A2, CYP2A6, CYP2B6, CYP2C8/9/18/19, CYP2D6, CYP2E1 and CYP3A4/5). […] The level of activity of P450 enzymes differs according to the individual. For example, individuals can be classified as poor, intermediate and extensive/ultra rapid P450 metabolizers. Because lower levels of P450 activity in an individual can give rise to drug/drug interactions (“DDI”), another embodiment of the invention is to determine whether the subject is a poor, intermediate and extensive/ultra rapid P450 metabolizer. […] The dose can raised incrementally and the subject retested once, twice, three, four or as many times as necessary to achieve an adjusted effective dose."}, "[2]": {"assay": "Aqueous solubility", "type": "physicochemical", "conditions": "in water"}, "[3]": {"assay": "Hygroscopicity of salts and free base", "type": "physicochemical"}, "[4]": {"test_system": "Gaucher mice (D409V/null)", "assay": "Separate and sequential enzyme and substrate reduction therapy in Gaucher mice", "type": "in vivo, mouse", "source_text": "Procedures involving animals were reviewed and approved by the Institutional Animal Care and Use Committee (IACUC) at Genzyme Corporation following the guidelines issued by the Association for Assessment and Accreditation of Laboratory Animal Care (AAALAC). […] The study had 6 groups of mice with group A being sacrificed after 2 weeks to provide baseline levels of tissue glucosylceramide. Groups B, C, and D all received recombinant human glucocerebrosidase (Genzyme Corp., Cambridge, Mass.) (10 mg/kg) intravenously via a tail-vein (100 μL) every 2 days for a total of 8 injections. Group B was sacrificed at the end of this regimen (at the same time as group A) to provide enzyme-reduced levels of tissue glucosylceramide. Groups D and E were both fed Formula (I) Hemitartrate (Genzyme Corp., Cambridge, Mass.) as a component of the pellet food diet. The drug was formulated at 0.075% (w/w) in standard 5053 mouse chow (TestDiet, Richmond, Ind.) and provided ad libitum. […] Group F received no treatment and was sacrificed along with groups C, D and E 12 weeks after the start of the study. Food consumption and mouse weights were monitored three times per week to determine drug intake and the potential impact of the drug on overall health. Animals were killed by carbon dioxide inhalation and their tissues harvested immediately. Half of each tissue was snap frozen on dry ice and stored at −80° C. until ready for further processing. The other half was processed for histological analysis.\nGlucosylceramide levels were quantified by mass spectrometry as described previously (see K. McEachern, et al., J. Gene. Med. 8 (2006) 719-729; T. Doering, J. Biol. Chem. 274 (1999) 11038-11045, the entire teachings of both are incorporated herein by reference). A known mass of tissue was homogenized in 2:1 (v/v) chloroform:methanol and incubated at 37° C. for 15 min. Samples were centrifuged and the supernatants were extracted with 0.2 volumes of water overnight at 4° C. The samples were centrifuged, the aqueous phase was discarded, and the organic phase was dried down to a film under nitrogen. For electrospray ionization mass spectrometry (ESI/MS) analysis, tissue samples were reconstituted to the equivalent of […] original tissue weight in 1 ml chloroform:methanol (2:1, v/v) and vortexed for 5 min. Aliquots (40 μL) of each sample were delivered to Waters total recovery vials and 50 μL of a 10 μg/mL d3-C16-GL-1 internal standard (Matreya, Inc., Pleasant Gap, Pa.) was added. Samples were dried under nitrogen and reconstituted with 200 μL of 1:4 (v/v) DMSO:methanol. ESI/MS analysis of glucosylceramides of different carbon chain lengths was performed on a Waters alliance HPLC (Separation Module 2695) coupled to a Micromass Quattro Micro system equipped with an electrospray ion source. Lipid extract samples (20 μL) were injected onto a C8 column ([…] i.d; Phenomenex, Torrance, Calif.) at 45° C. and eluted with a gradient of 50 to 100% acetonitrile (2 mM ammonium acetate, 0.1% formic acid) at 0.5 mL/min. The first 0.5 min. was held at 50% organic and then quickly switched to 100% for the final 3.5 min. The source temperature was held constant at 150° C. and nitrogen was used as the desolvation gas at a flow rate of 670 L/h. The capillary voltage was maintained at 3.80 KV with a cone voltage of 23 V, while the dwell time for each ion species was 100 ms. Spectra were acquired by the MRM mode to monitor eight dominant isoforms (C16:0, C18:0, C20:0, C22:1, C22:0, C22:1-OH, C24:1, and C24:0). Quantitation of glucosylceramide was based on the sum of these eight isoforms relative to the internal standard, with a calibration curve ranging from 0.1 to 10 μg/mL.\nFor histological analysis, tissues were fixed in zinc formalin (Electron Microscopy Sciences, Hatfield, Pa.) at room temperature for 24 h, then stored in PBS at 4° C. until ready for further processing. […]"}, "[5]": {"test_system": "Gaucher mice (D409V/null)", "assay": "Glucocerebrosidase dosing regimen for debulking GL1 in Gaucher mice", "type": "in vivo, mouse", "conditions": "for reduction of GL1 levels in the liver: 7 days after last infusion", "experimental": "To investigate the relative merits of combination and monotherapy with either enzyme or substrate reduction therapy, the enzyme regimen that maximally depleted GL1 levels in the visceral organs of Gaucher mice was first determined. Three month-old Gaucher mice (D409V/null) were intravenously administered 2, 4 or 8 doses of 10 mg/kg recombinant human glucocerebrosidase. The mice that were treated with 2 or 4 doses of the enzyme received drug infusions every 3 days while those that were treated with 8 doses received the enzyme every 2 days. The use of a shorter time interval between infusions in animals that received 8 treatments was designed to minimize the potential impact of any immune response to the administered human enzyme. The animals were killed 7 days following the last enzyme infusion and the amount of GL1 remaining in their livers, spleens, and lungs were measured."}, "[6]": {"test_system": "Fabry-Rag mice", "assay": "Combination ERT/SRT therapy of Fabry-Rag mice", "type": "in vivo, mouse", "conditions": "ERT 1 mg/kg α-galactosidase A i.v., SRT 300 mg/kg daily in diet", "experimental": "For the combination therapy studies, Fabry-Rag mice were put on study at 3 months old (treatment model). Mice in group A received intravenous injections of recombinant human alpha-galactosidase A (Genzyme Corp.) at a dose of 1 mg/kg every 2 months (i.e. 3, 5, 7 and 9 months old). Group B received the same intravenous enzyme doses plus it received Formula (I) Hemitartrate (Genzyme Corp., Cambridge, Mass.) as a component of the pellet food diet. The drug was formulated at 0.15% (w/w) in standard 5053 mouse chow (TestDiet, Richmond, Ind.) and provided ad libitum. […] Group C received enzyme injections every 4 months (i.e. 3 and 7 months old) and was on the same drug-in-food diet as group B. Group D received only the drug-in-food diet (same as groups B and C). Group E was untreated Fabry-Rag mice and group F were wild-type controls.\nQuantitation of GL-3 was by Tandem Mass Spectrometry essentially as for GL-1.\nHot plate Assay was performed as described previously (Ziegler, R J et al. Molec. Ther. 15(3), 492-500 (2007).\nBeginning at three-months of age, the mice were subjected to a schedule of behavioral tests (i.e. hot-plate assay) and biochemical tests (i.e., GL-3 level analysis in tissues/blood/urine), as shown in FIG. 10."}}, "data": [{"molecule": "CCCCCCCC(=O)N[C@H](CN1CCCC1)[C@H](O)c1ccc2c(c1)OCCO2", "note": "[Formula (I) Free Base]", "values": [{"measurement": "primary cytochrome P450 isoforms responsible for de-toxifying the compound", "setting": "[1]", "value": "CYP2D6 and CYP3A4"}, {"measurement": "Aqueous solubility", "setting": "[2]", "value": 0.04, "unit": "mg/mL"}, {"measurement": "Hygroscopicity (40° C./75% RH)", "setting": "[3]; 40° C./75% RH", "value": "None"}]}, {"molecule": "CCCCCCCC(=O)N[C@H](CN1CCCC1)[C@H](O)c1ccc2c(c1)OCCO2", "note": "[hydrochloric acid (1:1)]", "values": [{"measurement": "hygroscopicity of the solid salt", "setting": "[3]; salt screen, Example 1", "value": "hygroscopic"}]}, {"molecule": "recombinant glucocerebrosidase: recombinant human glucocerebrosidase (Genzyme Corp.), enzyme therapy given to Gaucher mice (protein, UniProt P04062 40-536, looked up) Lysosomal acid …: ARPCIPKSFGYSSVVCVCNATYCDSFDPPTFPALGTFSRYESTRSGRRMELSMGPIQANHTGTGLLLTLQPEQKFQKVKGFGGAMTDAAALNILALSPPAQNLLLKSYFSEEGIGYNIIRVPMASCDFSIRTYTYADTPDDFQLHNFSLPEEDTKLKIPLIHRALQLAQRPVSLLASPWTSPTWLKTNGAVNGKGSLKGQPGDIYHQTWARYFVKFLDAYAEHKLQFWAVTAENEPSAGLLSGYPFQCLGFTPEHQRDFIARDLGPTLANSTHHNVRLLMLDDQRLLLPHWAKVVLTDPEAAKYVHGIAVHWYLDFLAPAKATLGETHRLFPNTMLFASEACVGSKFWEQSVRLGSWDRGMQYSHSIITNLLYHVVGWTDWNLALNPEGGPNWVRNFVDSPIIVDITKDTFYKQPMFYHLGHFSKFIPEGSQRVGLVASQKNDLDAVALMHPDGSAVVVVLNRSSKDVPLTIKDPAVGFLETISPGYSIHTYLWRRQ", "values": [{"measurement": "liver histopathology, CD68-positive Gaucher cells", "setting": "[4]; 2 weeks enzyme, then 10 weeks without further treatment", "value": "re-emergence of Gaucher cells"}, {"measurement": "liver histopathology, CD68-positive Gaucher cells", "setting": "[4]; enzyme over a period of 2 weeks", "value": "substantial clearance of the lipid"}, {"measurement": "stored GL1 levels cleared from the liver", "setting": "[4]; group B: 8 doses of 10 mg/kg enzyme over 2 weeks", "value": "Approximately 80%"}, {"measurement": "reduction of splenic GL1 levels", "setting": "[4]; group B: enzyme alone for 2 weeks", "value": "approximately 60%"}, {"measurement": "reduction in substrate (GL1) levels in the lung", "setting": "[4]; group B: enzyme for 2 weeks", "value": 30, "unit": "%"}, {"measurement": "splenic GL1 levels versus untreated control (F)", "setting": "[4]; group C: 2 weeks enzyme, then 10 weeks without further intervention", "value": "not significantly different"}, {"measurement": "liver GL1 levels versus untreated controls (F)", "setting": "[4]; group C: 2 weeks enzyme, then 10 weeks without further treatment", "value": "not significantly different"}, {"measurement": "lung GL1 levels versus untreated levels (F)", "setting": "[4]; group C: 2 weeks enzyme, then normal chow for 10 weeks", "value": "not significantly different"}, {"measurement": "splenic GL1 levels versus untreated controls", "setting": "[5]; 2 doses of 10 mg/kg i.v.", "value": "did not significantly alter"}, {"measurement": "reduction of GL1 levels in the liver", "setting": "[5]; 2 doses of 10 mg/kg i.v. every 3 days", "value": 50, "unit": "%"}, {"measurement": "reduction of splenic GL1 levels", "setting": "[5]; 4 or 8 doses of 10 mg/kg i.v.", "value": "about 50%"}, {"measurement": "reduction of GL1 levels in the liver", "setting": "[5]; 4 or 8 doses of 10 mg/kg i.v.", "value": "approximately 75%"}, {"measurement": "lung GL1, reduction to % of untreated control", "setting": "[5]; 8 doses of 10 mg/kg i.v. every 2 days", "value": "approximately 60%"}]}, {"molecule": "ERT: enzyme replacement therapy in Fabry-Rag mice: recombinant human alpha-galactosidase A (Genzyme Corp.), 1 mg/kg intravenous (protein, UniProt P06280 32-429, looked up) Alpha-galactosidase A: LDNGLARTPTMGWLHWERFMCNLDCQEEPDSCISEKLFMEMAELMVSEGWKDAGYEYLCIDDCWMAPQRDSEGRLQADPQRFPHGIRQLANYVHSKGLKLGIYADVGNKTCAGFPGSFGYYDIDAQTFADWGVDLLKFDGCYCDSLENLADGYKHMSLALNRTGRSIVYSCEWPLYMWPFQKPNYTEIRQYCNHWRNFADIDDSWKSIKSILDWTSFNQERIVDVAGPGGWNDPDMLVIGNFGLSWNQQVTQMALWAIMAAPLFMSNDLRHISPQAKALLQDKDVIAINQDPLGKQGYQLRQGDNFEVWERPLSGLAWAVAMINRQEIGGPRSYTIAVASLGKGVACNPACFITQLLPVKRKLGFYEWTSRLRSHINPTGTVLLQLENTMQMSLKDLL", "values": [{"measurement": "onset of heat-insensitivity", "setting": "[6]", "value": "not"}, {"measurement": "urine GL-3 levels", "setting": "[6]", "value": "does not"}, {"measurement": "blood GL-3 levels", "setting": "[6]; from 3 months of age", "value": "reduces"}]}]}
